Ends that are not written are not given here. * marks the point of attachment. Biotin = O=C1N[C@H]2[C@H](CS[C@H]2CCCCC(=O)*)N1
Assays:
Experiment in all cases: peptide or protein array; E. coli proteome chip: purified His-tagged proteins printed in duplicate on Fullmoon slides, blocked with 1% BSA; 10 nM N-terminal biotinylated LfcinB with 1% BSA, room temperature, 1 h; detected with DyLight 649-labeled streptavidin, ratio to DyLight 549-labeled anti-His antibody; ProCAT normalisation, local cut-off; triplicate chips
Details in all cases: both partners purified
HemK = biological target: T1, HemK (E. coli K-12, UniProt P0ACC1 1-277)
T1 construct: HemK, E. coli K-12
T1 sequence (looked up): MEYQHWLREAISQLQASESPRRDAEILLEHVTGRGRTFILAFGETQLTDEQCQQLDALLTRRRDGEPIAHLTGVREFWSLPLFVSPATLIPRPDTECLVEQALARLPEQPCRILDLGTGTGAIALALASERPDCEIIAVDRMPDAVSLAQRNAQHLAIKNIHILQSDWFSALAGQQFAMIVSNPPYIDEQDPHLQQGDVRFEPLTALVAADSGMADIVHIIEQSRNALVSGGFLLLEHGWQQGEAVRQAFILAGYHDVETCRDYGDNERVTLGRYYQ

YbaE = biological target: T2, YbaE (E. coli K-12, UniProt P46890 1-566)
T2 construct: YbaE, E. coli K-12
T2 sequence (looked up): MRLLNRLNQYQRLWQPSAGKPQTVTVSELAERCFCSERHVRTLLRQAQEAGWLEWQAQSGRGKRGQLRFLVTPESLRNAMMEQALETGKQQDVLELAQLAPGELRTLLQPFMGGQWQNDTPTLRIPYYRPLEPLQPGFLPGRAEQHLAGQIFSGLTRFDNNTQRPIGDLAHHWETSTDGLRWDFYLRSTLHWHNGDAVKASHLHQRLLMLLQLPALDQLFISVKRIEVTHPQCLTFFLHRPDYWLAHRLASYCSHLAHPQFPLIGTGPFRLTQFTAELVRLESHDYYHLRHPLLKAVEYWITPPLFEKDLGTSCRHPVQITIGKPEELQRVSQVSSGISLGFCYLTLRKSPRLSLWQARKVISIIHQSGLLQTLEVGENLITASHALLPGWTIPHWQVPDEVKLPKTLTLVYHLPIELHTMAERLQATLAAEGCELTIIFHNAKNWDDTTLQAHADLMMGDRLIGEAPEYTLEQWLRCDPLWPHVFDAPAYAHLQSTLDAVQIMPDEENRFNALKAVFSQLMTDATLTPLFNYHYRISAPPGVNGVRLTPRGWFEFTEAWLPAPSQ

EnvR = biological target: T3, EnvR (E. coli K-12, UniProt P0ACT2 1-220)
T3 construct: EnvR, E. coli K-12
T3 sequence (looked up): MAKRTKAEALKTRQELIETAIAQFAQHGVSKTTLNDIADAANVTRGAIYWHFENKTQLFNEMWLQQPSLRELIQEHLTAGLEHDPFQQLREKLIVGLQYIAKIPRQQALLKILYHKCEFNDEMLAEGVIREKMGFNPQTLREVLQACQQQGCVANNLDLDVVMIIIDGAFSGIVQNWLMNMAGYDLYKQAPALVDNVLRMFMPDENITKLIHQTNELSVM

YfbO = biological target: T4, YfbO (E. coli K-12, UniProt P76485 1-140)
T4 construct: YfbO, E. coli K-12
T4 sequence (looked up): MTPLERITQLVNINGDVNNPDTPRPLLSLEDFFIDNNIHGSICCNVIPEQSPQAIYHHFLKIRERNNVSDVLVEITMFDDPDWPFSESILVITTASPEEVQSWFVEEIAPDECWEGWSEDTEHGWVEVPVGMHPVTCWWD

NrdB = biological target: T5, NrdB (E. coli K-12, UniProt P69924 1-376)
T5 construct: NrdB, E. coli K-12
T5 sequence (looked up): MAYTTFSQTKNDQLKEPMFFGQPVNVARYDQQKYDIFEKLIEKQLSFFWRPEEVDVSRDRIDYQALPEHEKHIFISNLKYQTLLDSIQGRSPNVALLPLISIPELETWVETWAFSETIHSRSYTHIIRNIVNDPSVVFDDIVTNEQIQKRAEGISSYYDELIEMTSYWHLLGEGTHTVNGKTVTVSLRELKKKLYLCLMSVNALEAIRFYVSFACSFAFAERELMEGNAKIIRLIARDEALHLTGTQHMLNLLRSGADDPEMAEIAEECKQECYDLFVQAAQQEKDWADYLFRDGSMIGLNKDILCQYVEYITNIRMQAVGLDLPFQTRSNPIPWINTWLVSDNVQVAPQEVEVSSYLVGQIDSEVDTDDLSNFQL

Measured: binding result

B1: N-terminal biotinylated Lactoferricin B (peptide, UniProt P24627 36-60, looked up)
peptide: Biotin-FKCRRWQWRMKKLGAPSITCVRRAF
modifications: ends and bridges not checked
notes: lactoferricin B (LfcinB), cationic antimicrobial peptide of 25 amino acids; also called biotinylated LfcinB; biotin-labeled LfcinB; source: bought: Kelowna Inc
binds: all assays above
